Measurements published in patent US20250207145A1, “URIDINE DIPHOSPHATE-GLYCOSYLTRANSFERASE AND A […], TISSUE, AND ORGANISM COMPRISING SAME” (YEDA RESEARCH AND DEVELOPMENT CO. LTD., priority 2022, published 2025).

Key:
Assay type in all cases: biochemical
[1] = In vitro assays with purified UGTs and an array of cannabinoid substrates; conditions: purified enzymes
Procedure: (§1) Selected UGT genes from Helichrysum were individually cloned into the pET28b vector and expressed in E. coli BL21 (DE3) cells. Bacterial starters were grown overnight in LB medium at 37° C., diluted in fresh LB 1:100, and re-incubated at 37° C. When cultures reached A600=0.6, protein expression was induced with 400 μM of isopropyl-1-thio-β-d-galactopyranoside (IPTG) overnight at 15° C. Bacterial cells were lysed by sonication in 50 mM Tris-HCl pH 8, 0.5 mM phenylmethylsulfonyl fluoride (PMSF, Sigma Aldrich) solution in isopropanol, 10% glycerol and protease inhibitor cocktail (Sigma Aldrich), and 1 mg ml-1 lysozyme (Sigma Aldrich). The whole-cell extract was either kept for functional activity or used for protein purification. Purification of proteins was performed on Ni-NTA agarose beads (Adar Biotech). The proteins were eluted with 200 mM imidazole (Fluka) in buffer containing 50 mM NaH2PO4, pH 8 and 0.5 M NaCl. Protein concentration of the eluted fractions was measured with Pierce™ 660 nm protein assay reagent (Thermo Scientific).
Recombinant UGT assays using different aromatic substrates were performed by mixing 1.5 μl of the UDP solution (80 mM, final concentration: 2.5 mM), 27.5 μl Tris buffer (100 mM), 1 μl of each of the substrates (50 mM, final concentration: 1 mM) and 20 μl of the lysate enzyme solution. The reactions were incubated at 30° C. for 1 h. To stop the reactions, 50 μl methanol were added to each tube, vortexed for 10 s, centrifuged at maximum speed for 10 min, and then the supernatant was recovered and used for UPLC-qTOF analysis. The assay with the purified UGTs was performed by mixing 2 μl of the cannabinoid acceptors (OA, DHSA, CBGA, heliCBGA, CBDA, A9-THCA, CBCA, olivetol, CBG, CBD or 49-THC, hexanoylphloroglucinol, naringenin chalcone or pinocembrin chalcone) in the presence of 1.5 μl UDP 80 mM, 46.5 μl Tris buffer (100 mM, pH 8.0) and 1 μl of each enzyme. To stop the reactions, 100 μl methanol was added to each tube, and the compounds were extracted and analyzed as previously described. Kinetics assays were performed with the purified enzymes (1.5 μg/μl) dissolved in 45 μl Tris buffer (100 mM, pH 8.0) and substrates were added using varying (0.5 μM-3 mM) and constant (1 mM) concentrations of OA and UDP and the total reaction volume was 50 μl. To stop the reactions, 100 μl methanol was added to each tube, and the compounds were extracted and analyzed as previously described.
Next, the inventors recombinantly expressed eleven of the thirteen UGTs from Helichrysum in E. coli and used the crude lysate to examine the activity of the proteins using OA, CBGA, and heliCBGA in a reaction including UDP-Glc as the sugar donor. […] The inventors screened the LC/HRMS chromatograms for glucosylated and diglucosylated products according to the theoretical m/z values. […] All the enzymes were active with varying substrate specificity and products produced.

[2] = Steady state kinetics assays of purified UGTs with OA and UDP; conditions: OA 0.5 μM-3 mM varying, UDP 1 mM constant; compared HuUGT11, HuUGT13, OsUGT, SrUGT; FIG. 12
Procedure: FIGS. 12A-12B include curves and a table showing comparison of steady state kinetic analysis of HuUGT11 and HuUGT13 versus OsUGT and SrUGT, with olivetolic acid and UDP-glc. (12A) The Michaelis-Menten Km value of each enzyme was calculated using varying (0.5 μM-3 mM) and constant (1 mM) concentrations of olivetolic acid and […] (n=3 technically independent samples; measurements were plotted individually). Since there was no analytical standard available for Glc-OA, V0 was calculated using the calibration curve of OA. (12B) A summary of the results presented in 12A. V0 and Vmax were calculated using the calibration curve of OA since there was no analytical standard available for Glc-OA.
Recombinant UGT assays using different aromatic substrates were performed by mixing 1.5 μl of the UDP solution (80 mM, final concentration: 2.5 mM), 27.5 μl Tris buffer (100 mM), 1 μl of each of the substrates (50 mM, final concentration: 1 mM) and 20 μl of the lysate enzyme solution. The reactions were incubated at 30° C. for 1 h. […] To stop the reactions, 100 μl methanol was added to each tube, and the compounds were extracted and analyzed as previously described. […] To stop the reactions, 100 μl methanol was added to each tube, and the compounds were extracted and analyzed as previously described.

[3] = UGT enzyme assay with crude E. coli lysates, UDP-Glc as sugar donor; conditions: crude lysate, substrates OA, CBGA, heliCBGA, FIG. 8
Procedure: as §1, with “The whole-cell extract was either kept for functional activity or used for protein purification. Purification of proteins was performed on Ni-NTA agarose beads (Adar Biotech). The proteins were eluted with 200 mM imidazole (Fluka) in buffer containing 50 mM NaH2PO4, pH 8 and 0.5 M NaCl.” left out
Recombinant UGT assays using different aromatic substrates were performed by mixing 1.5 μl of the UDP solution (80 mM, final concentration: 2.5 mM), 27.5 μl Tris buffer (100 mM), 1 μl of each of the substrates (50 mM, final concentration: 1 mM) and 20 μl of the lysate enzyme solution. […] To stop the reactions, 100 μl methanol was added to each tube, and the compounds were extracted and analyzed as previously described. […] […]

| Molecule | activity on the cannabinoid intermediates [1] | activity on the prenylated compounds [1] | catalytic performance in kinetics assays versus the other enzymes [2] | activity of lysates containing HuUGTs on the different substrates [3] | diglucosylation of acid compounds ([1]; UDP-glc, FIG. 11) |
| --- | --- | --- | --- | --- | --- |
| HuUGT11: UDP-glycosyltransferase from Helichrysum umbraculigerum, recombinantly expressed in E. coli (protein, listed as Helichrysum umbraculigerum) MGSLKKGAHILIFPFPAQGHMLPLLDLTHHLATNGLTITILVTPKNLPILNPLLSSSPNIQPLVFPFPPHPRLPPHVENVKDIGNHANVPITNSLAKLQDQIIQWFNSHHNPPVAIISDFFLGWTQHLANKLGIPRVGFFSSGAYLTAVLDYVCHNIKTVRSQEETVFHDLPNSPCFKFEHLPGLAQIYKESDPEWELVLDGHIANGLSWGWIVNTFDGLESRYMEYLTKKMGVGRVFGVGPVNLLNGSDPMTRGKSESGSDSGVLNWLDGKPDGSVLYVCFGSQKFLTNDQMEGLSIGLEQSGVHYVWVVKDEQGDAIRSGSGRGLVVTGWAPQVSILGHGAVGGFLSHCGWNSVLEAIVNGVMILAWPMEADQFVNAKLLVDDHGIGVWVCEGPNTVPDSTELARKIGESMSTDKSEKVKAKEMKNKANEAVKEGGSSSMELSRLVKELSNFETNGP | highly active | almost inactive | impressive catalytic advantage | showed activity |  |
| HuUGT13: UDP-glycosyltransferase from Helichrysum umbraculigerum, recombinantly expressed in E. coli (protein, listed as Helichrysum umbraculigerum) MSLVTNNPHLLVYPLPTSGHIIPLLDLTDLLLRRGLTITVVISTTDLTLLDTLLSSHPTSLHKLYFPDPEIGPSSHPVIARIIATQKLFDPIVKWFESHPSPPVAIISDFFLGWTNELASRLGIRRVVFSPSGALGHSILQSLWRDVAEINAKNVDGNGNYSISFTDIPNSPEFHWWQLSQLLRVHREGDPDFEFFRNGMLANTKSWGIVYNTFERIEKVYIDHVKKQIGHDRVWAIGPLLPEEHGPVGSTARGGSSVVPPHDLLTWLDKKPHDSVVYICFGSRLTLSEKQMSALASALELSNVDFILCVKASGSSFIPSGFEDRVVGRGFVIKGWAPQLAILRHRAVGSFVTHCGWNSTLEGVSSGVMMLTWPMGADQYANAKLLVDQLGVGKRVCEGGPESVPDSTELARLLEESLSGDTSERVKVKELSREANTAVKEGTSIRDLNMFVNLLSEL | highly active | almost inactive |  | showed activity |  |
| HuUGT6: UDP-glycosyltransferase from Helichrysum umbraculigerum, recombinantly expressed in E. coli (protein, listed as Helichrysum umbraculigerum) MTQKQMQMQPHFLLVTYPAQGHINPSLQFAERLIRLGVKVTFTTTVSAYRRMSKAGNISEFLNFAAFSDGFDDGFNFETDDHGLFLTQLRSRGKDSLKETILSNAKNGTPISCLVYTLLLPWAPEVARGLNVPSAFLWIQPASVLRLYYYYFNGYNELIGDDCNEPSWSIQLPGLPLLKS |  |  |  |  | only observed in case of HuUGT6 |
